Assay in all cases: SPR (Biacore);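 also: antibody variants captured on sensor chip, Fcγ receptor flowed over at 25 °C, bound receptor normalized to amount of captured antibody, expressed relative to reference antibody set as 100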
On the technique in general: SPR reads the build-up and loss of mass on a sensor chip optically.

The target in assay [1] is T1, human FcγRIIa(R) (human, UniProt P12318 36-217).
T1 construct: also called FcgRIIaR; FcγRIIa type R
T1 chain: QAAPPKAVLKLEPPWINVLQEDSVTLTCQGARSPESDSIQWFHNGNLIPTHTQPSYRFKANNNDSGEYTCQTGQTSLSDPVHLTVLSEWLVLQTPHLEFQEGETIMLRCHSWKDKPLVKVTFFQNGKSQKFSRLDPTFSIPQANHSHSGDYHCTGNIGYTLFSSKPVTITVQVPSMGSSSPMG

For assay [2], the target named is T2, human FcγRIIa(H) (human, UniProt P12318 36-217).
T2 construct: also called FcgRIIaH; FcγRIIa type H
T2 sequence: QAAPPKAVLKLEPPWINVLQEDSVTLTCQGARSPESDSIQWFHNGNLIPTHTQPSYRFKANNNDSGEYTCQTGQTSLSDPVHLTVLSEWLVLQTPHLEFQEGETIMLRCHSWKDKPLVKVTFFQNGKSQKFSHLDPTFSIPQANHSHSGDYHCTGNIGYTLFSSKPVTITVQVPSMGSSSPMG

Assay [3] concerns the target T3, human FcγRIIb (human, UniProt P31994 43-217, limits assumed).
T3 construct: also called FcgRIIb
T3 sequence: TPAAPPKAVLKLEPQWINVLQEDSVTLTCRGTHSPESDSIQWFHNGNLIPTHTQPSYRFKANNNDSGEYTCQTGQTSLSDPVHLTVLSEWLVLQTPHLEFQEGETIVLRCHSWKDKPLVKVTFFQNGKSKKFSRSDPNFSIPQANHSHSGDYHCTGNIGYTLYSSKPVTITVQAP

Assay [4] addresses T4, human FcγRIIIa(F) (human, UniProt P08637 17-208, limits assumed).
T4 construct: also called FcgRIIIaF; allotype F158

Assay [5] concerns the target T5, human FcγRIa (human, UniProt P12314 16-292, limits assumed).
T5 construct: also called FcgRIa; FcγRI (CD64)

T4 sequence (P08637 other isoform, or with tags, fused parts or gaps limits assumed): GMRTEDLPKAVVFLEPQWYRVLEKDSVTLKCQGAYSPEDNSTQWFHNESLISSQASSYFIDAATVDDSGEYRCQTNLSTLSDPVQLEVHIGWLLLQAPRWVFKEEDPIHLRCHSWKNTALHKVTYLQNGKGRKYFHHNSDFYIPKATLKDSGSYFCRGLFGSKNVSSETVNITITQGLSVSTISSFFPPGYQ
T5 sequence (P12314 16-292 limits assumed): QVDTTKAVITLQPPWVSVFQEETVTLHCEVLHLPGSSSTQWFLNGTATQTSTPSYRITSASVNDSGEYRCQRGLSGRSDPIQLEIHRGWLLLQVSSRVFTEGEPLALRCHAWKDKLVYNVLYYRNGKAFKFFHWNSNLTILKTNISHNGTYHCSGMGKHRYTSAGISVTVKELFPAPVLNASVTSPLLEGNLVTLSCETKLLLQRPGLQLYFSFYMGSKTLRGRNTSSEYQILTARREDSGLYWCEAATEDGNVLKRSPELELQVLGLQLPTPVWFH

B1: GpH7-B3 variant S239F/GpL16-k0 (antibody, human IgG1)
heavy: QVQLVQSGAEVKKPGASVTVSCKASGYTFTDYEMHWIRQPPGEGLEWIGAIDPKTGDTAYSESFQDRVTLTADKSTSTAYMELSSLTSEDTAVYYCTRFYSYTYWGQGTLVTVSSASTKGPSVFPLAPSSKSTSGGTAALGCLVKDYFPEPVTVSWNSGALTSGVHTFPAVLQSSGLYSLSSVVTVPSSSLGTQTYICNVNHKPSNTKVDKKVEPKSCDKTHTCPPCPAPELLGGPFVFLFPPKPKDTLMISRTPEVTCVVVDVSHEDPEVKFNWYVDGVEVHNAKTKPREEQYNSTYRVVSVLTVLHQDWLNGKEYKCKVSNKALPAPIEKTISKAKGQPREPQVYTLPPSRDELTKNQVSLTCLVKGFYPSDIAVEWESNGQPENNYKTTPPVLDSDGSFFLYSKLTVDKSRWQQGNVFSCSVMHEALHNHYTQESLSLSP
light: DIVMTQSPLSLPVTPGEPASISCQASESLVHSNRNTYLHWYLQKPGQSPQLLIYKVSNRFSGVPDRFSGSGSGTDFTLKISRVEAEDVGVYYCSQNTHVPPTFGQGTKVEIE
notes: copies: 2 + 2
For B1, the relative binding activity in assay [1] was 20 % of GpH7-B3/GpL16-k0; in assay [2], 11 % of GpH7-B3/GpL16-k0; in assay [3] it was 12 % of GpH7-B3/GpL16-k0; in assay [4], 3 % of GpH7-B3/GpL16-k0; in assay [5], 77 % of GpH7-B3/GpL16-k0.

B2: GpH7-B3 variant S267F/GpL16-k0 (antibody, human IgG1)
heavy: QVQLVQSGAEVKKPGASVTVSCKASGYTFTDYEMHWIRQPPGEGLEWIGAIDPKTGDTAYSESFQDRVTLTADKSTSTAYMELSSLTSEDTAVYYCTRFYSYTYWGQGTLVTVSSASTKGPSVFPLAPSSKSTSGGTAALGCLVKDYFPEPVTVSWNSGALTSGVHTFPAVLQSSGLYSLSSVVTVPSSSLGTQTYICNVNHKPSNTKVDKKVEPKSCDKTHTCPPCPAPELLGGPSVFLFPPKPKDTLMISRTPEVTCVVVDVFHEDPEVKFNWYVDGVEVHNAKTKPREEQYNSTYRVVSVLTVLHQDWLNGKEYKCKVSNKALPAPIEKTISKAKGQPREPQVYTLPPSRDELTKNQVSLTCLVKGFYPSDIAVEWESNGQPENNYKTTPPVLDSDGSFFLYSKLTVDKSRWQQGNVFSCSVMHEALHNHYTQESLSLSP
light: DIVMTQSPLSLPVTPGEPASISCQASESLVHSNRNTYLHWYLQKPGQSPQLLIYKVSNRFSGVPDRFSGSGSGTDFTLKISRVEAEDVGVYYCSQNTHVPPTFGQGTKVEIE
notes: copies: 2 + 2
Turning to B2, the relative binding activity in assay [1] was 13 % of GpH7-B3/GpL16-k0; in assay [2], 1 % of GpH7-B3/GpL16-k0; in assay [3], 18 % of GpH7-B3/GpL16-k0; in assay [4], 0 % of GpH7-B3/GpL16-k0; in assay [5], 91 % of GpH7-B3/GpL16-k0.

B3: GpH7-B3 variant S239Y/GpL16-k0 (antibody, human IgG1)
heavy: not shown
light: DIVMTQSPLSLPVTPGEPASISCQASESLVHSNRNTYLHWYLQKPGQSPQLLIYKVSNRFSGVPDRFSGSGSGTDFTLKISRVEAEDVGVYYCSQNTHVPPTFGQGTKVEIE
notes: copies: 2 + 2
Regarding B3, the relative binding activity in assay [1] was 11 % of GpH7-B3/GpL16-k0; in assay [2], 5 % of GpH7-B3/GpL16-k0; in assay [3], 12 % of GpH7-B3/GpL16-k0; in assay [4] it was 6 % of GpH7-B3/GpL16-k0; in assay [5], 69 % of GpH7-B3/GpL16-k0.

B4: GpH7-B3 variant S267H/GpL16-k0 (antibody, human IgG1)
heavy: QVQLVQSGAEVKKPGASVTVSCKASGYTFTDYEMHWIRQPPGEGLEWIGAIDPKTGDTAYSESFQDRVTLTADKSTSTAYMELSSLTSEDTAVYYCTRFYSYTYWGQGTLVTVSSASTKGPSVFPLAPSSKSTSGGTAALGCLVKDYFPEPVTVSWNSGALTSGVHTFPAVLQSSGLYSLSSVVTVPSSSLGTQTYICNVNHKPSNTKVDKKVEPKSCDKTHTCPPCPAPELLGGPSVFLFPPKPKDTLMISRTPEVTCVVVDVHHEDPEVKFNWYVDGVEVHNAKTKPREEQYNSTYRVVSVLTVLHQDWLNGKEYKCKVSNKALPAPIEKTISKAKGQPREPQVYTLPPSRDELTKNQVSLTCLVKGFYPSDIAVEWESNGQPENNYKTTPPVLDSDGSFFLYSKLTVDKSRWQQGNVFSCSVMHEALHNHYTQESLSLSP
light: DIVMTQSPLSLPVTPGEPASISCQASESLVHSNRNTYLHWYLQKPGQSPQLLIYKVSNRFSGVPDRFSGSGSGTDFTLKISRVEAEDVGVYYCSQNTHVPPTFGQGTKVEIE
notes: copies: 2 + 2
As for B4, the relative binding activity in assay [1] is 27 % of GpH7-B3/GpL16-k0; in assay [2], 3 % of GpH7-B3/GpL16-k0; in assay [3], 42 % of GpH7-B3/GpL16-k0; in assay [4] it was 1 % of GpH7-B3/GpL16-k0; in assay [5] it was 95 % of GpH7-B3/GpL16-k0.

B5: GpH7-B3 variant S239H/GpL16-k0 (antibody, human IgG1)
heavy: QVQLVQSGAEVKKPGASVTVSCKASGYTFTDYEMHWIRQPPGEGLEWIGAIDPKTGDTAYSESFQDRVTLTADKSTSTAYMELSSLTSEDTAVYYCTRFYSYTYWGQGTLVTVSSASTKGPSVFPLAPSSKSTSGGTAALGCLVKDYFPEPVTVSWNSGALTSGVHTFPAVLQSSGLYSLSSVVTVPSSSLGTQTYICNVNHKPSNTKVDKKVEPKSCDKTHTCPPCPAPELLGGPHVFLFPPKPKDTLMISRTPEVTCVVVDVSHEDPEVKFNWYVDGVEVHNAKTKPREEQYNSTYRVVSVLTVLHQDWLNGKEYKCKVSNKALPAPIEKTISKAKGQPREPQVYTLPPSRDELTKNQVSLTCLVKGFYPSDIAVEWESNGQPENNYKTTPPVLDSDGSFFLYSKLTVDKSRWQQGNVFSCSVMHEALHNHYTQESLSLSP
light: DIVMTQSPLSLPVTPGEPASISCQASESLVHSNRNTYLHWYLQKPGQSPQLLIYKVSNRFSGVPDRFSGSGSGTDFTLKISRVEAEDVGVYYCSQNTHVPPTFGQGTKVEIE
notes: copies: 2 + 2
As for B5, the relative binding activity in assay [1] was 38 % of GpH7-B3/GpL16-k0; in assay [2] it was 19 % of GpH7-B3/GpL16-k0; in assay [3] it was 24 % of GpH7-B3/GpL16-k0; in assay [4], 6 % of GpH7-B3/GpL16-k0; in assay [5], 64 % of GpH7-B3/GpL16-k0.

B6: GpH7-B3 variant S239K/GpL16-k0 (antibody, human IgG1)
heavy: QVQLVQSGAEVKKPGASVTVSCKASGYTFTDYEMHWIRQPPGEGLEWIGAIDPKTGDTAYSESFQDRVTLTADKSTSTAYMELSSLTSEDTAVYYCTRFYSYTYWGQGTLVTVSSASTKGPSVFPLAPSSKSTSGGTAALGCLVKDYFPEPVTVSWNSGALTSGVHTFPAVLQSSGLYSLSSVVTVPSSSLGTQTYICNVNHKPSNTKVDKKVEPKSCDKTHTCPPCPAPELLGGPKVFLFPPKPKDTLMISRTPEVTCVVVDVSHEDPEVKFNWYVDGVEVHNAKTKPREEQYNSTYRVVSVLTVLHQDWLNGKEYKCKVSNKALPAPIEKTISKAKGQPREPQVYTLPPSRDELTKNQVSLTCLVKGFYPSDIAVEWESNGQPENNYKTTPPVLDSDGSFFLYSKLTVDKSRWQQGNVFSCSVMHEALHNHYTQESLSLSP
light: DIVMTQSPLSLPVTPGEPASISCQASESLVHSNRNTYLHWYLQKPGQSPQLLIYKVSNRFSGVPDRFSGSGSGTDFTLKISRVEAEDVGVYYCSQNTHVPPTFGQGTKVEIE
notes: copies: 2 + 2
As to B6, the relative binding activity in assay [1] is 4 % of GpH7-B3/GpL16-k0; in assay [2], 4 % of GpH7-B3/GpL16-k0; in assay [3], 1 % of GpH7-B3/GpL16-k0; in assay [4], 0 % of GpH7-B3/GpL16-k0; in assay [5], 6 % of GpH7-B3/GpL16-k0.

B7: GpH7-B3 variant S267Y/GpL16-k0 (antibody, human IgG1)
heavy: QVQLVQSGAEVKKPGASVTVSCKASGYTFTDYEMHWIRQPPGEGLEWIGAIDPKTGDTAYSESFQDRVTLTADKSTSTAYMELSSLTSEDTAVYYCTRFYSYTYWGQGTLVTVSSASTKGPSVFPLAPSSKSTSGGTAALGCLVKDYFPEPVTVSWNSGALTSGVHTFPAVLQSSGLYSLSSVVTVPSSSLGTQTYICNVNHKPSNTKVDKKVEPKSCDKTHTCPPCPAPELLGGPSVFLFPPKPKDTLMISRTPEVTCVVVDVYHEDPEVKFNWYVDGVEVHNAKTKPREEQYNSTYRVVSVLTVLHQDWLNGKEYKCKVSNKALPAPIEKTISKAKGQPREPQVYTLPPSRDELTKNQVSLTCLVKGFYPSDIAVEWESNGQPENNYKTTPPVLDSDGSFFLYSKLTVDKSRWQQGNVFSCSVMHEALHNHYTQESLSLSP
light: DIVMTQSPLSLPVTPGEPASISCQASESLVHSNRNTYLHWYLQKPGQSPQLLIYKVSNRFSGVPDRFSGSGSGTDFTLKISRVEAEDVGVYYCSQNTHVPPTFGQGTKVEIE
notes: copies: 2 + 2
Consider B7, for which the relative binding activity in assay [1] was 10 % of GpH7-B3/GpL16-k0; in assay [2] it was 2 % of GpH7-B3/GpL16-k0; in assay [3], 14 % of GpH7-B3/GpL16-k0; in assay [4], 1 % of GpH7-B3/GpL16-k0; in assay [5], 96 % of GpH7-B3/GpL16-k0.

B8: GpH7-B3 variant S267R/GpL16-k0 (antibody, human IgG1)
heavy: not shown
light: DIVMTQSPLSLPVTPGEPASISCQASESLVHSNRNTYLHWYLQKPGQSPQLLIYKVSNRFSGVPDRFSGSGSGTDFTLKISRVEAEDVGVYYCSQNTHVPPTFGQGTKVEIE
notes: copies: 2 + 2
B8: the relative binding activity in assay [1] is -6 % of GpH7-B3/GpL16-k0; in assay [2] it was -1 % of GpH7-B3/GpL16-k0; in assay [3] it was 0 % of GpH7-B3/GpL16-k0; in assay [4], 0 % of GpH7-B3/GpL16-k0; in assay [5], 78 % of GpH7-B3/GpL16-k0.

B9: GpH7-B3 variant V266D/GpL16-k0 (antibody, human IgG1)
heavy: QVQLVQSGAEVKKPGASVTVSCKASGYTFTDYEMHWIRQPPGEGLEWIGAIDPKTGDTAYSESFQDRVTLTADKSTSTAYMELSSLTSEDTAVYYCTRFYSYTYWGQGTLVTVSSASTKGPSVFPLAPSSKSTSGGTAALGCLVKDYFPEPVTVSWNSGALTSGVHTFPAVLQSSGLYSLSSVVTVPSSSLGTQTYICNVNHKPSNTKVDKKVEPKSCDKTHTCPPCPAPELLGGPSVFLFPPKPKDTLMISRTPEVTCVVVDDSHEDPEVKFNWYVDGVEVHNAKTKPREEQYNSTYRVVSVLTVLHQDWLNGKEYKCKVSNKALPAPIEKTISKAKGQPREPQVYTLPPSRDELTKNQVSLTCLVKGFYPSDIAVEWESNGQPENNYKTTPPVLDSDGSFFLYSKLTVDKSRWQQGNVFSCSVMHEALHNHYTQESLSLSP
light: DIVMTQSPLSLPVTPGEPASISCQASESLVHSNRNTYLHWYLQKPGQSPQLLIYKVSNRFSGVPDRFSGSGSGTDFTLKISRVEAEDVGVYYCSQNTHVPPTFGQGTKVEIE
notes: copies: 2 + 2
In the case of B9, the relative binding activity was 3 % of GpH7-B3/GpL16-k0 in assay [1]; 2 % of GpH7-B3/GpL16-k0 in assay [2]; 2 % of GpH7-B3/GpL16-k0 in assay [3]; 1 % of GpH7-B3/GpL16-k0 in assay [4]; 67 % of GpH7-B3/GpL16-k0 in assay [5].

B10: GpH7-B3 variant S239P/GpL16-k0 (antibody, human IgG1)
heavy: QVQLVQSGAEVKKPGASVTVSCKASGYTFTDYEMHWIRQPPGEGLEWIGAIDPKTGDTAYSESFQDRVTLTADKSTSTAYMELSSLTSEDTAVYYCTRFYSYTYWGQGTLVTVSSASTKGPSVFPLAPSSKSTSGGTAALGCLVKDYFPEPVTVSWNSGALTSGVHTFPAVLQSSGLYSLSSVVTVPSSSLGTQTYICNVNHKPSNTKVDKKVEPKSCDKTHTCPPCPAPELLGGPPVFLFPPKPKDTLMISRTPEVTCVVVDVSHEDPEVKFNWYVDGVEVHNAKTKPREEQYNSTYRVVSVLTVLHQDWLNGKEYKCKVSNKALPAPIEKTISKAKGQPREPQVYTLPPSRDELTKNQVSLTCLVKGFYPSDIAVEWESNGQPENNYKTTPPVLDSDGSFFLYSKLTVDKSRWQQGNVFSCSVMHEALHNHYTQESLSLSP
light: DIVMTQSPLSLPVTPGEPASISCQASESLVHSNRNTYLHWYLQKPGQSPQLLIYKVSNRFSGVPDRFSGSGSGTDFTLKISRVEAEDVGVYYCSQNTHVPPTFGQGTKVEIE
notes: copies: 2 + 2
As to B10, the relative binding activity is 49 % of GpH7-B3/GpL16-k0 in assay [1]; 4 % of GpH7-B3/GpL16-k0 in assay [2]; 61 % of GpH7-B3/GpL16-k0 in assay [3]; -1 % of GpH7-B3/GpL16-k0 in assay [4]; 89 % of GpH7-B3/GpL16-k0 in assay [5].

B11: GpH7-B3 variant S239Q/GpL16-k0 (antibody, human IgG1)
heavy: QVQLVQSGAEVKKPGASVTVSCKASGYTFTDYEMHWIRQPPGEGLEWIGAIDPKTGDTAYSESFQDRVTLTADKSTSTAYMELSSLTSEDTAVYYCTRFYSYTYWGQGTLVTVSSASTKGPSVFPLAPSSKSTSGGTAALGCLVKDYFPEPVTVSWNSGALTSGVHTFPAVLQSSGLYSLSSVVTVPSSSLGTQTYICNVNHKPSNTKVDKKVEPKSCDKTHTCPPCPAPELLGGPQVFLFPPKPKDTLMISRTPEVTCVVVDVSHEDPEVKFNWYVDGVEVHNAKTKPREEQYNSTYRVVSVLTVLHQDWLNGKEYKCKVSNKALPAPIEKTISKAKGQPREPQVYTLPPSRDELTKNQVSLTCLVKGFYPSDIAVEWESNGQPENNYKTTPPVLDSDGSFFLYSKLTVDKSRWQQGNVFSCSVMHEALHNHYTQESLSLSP
light: DIVMTQSPLSLPVTPGEPASISCQASESLVHSNRNTYLHWYLQKPGQSPQLLIYKVSNRFSGVPDRFSGSGSGTDFTLKISRVEAEDVGVYYCSQNTHVPPTFGQGTKVEIE
notes: copies: 2 + 2
For B11, the relative binding activity is 57 % of GpH7-B3/GpL16-k0 in assay [1]; 58 % of GpH7-B3/GpL16-k0 in assay [2]; 68 % of GpH7-B3/GpL16-k0 in assay [3]; 29 % of GpH7-B3/GpL16-k0 in assay [4]; 96 % of GpH7-B3/GpL16-k0 in assay [5].

B12: GpH7-B3 variant S267K/GpL16-k0 (antibody, human IgG1)
heavy: not shown
light: DIVMTQSPLSLPVTPGEPASISCQASESLVHSNRNTYLHWYLQKPGQSPQLLIYKVSNRFSGVPDRFSGSGSGTDFTLKISRVEAEDVGVYYCSQNTHVPPTFGQGTKVEIE
notes: copies: 2 + 2
On to B12, for which the relative binding activity in assay [1] is 1 % of GpH7-B3/GpL16-k0; in assay [2], 1 % of GpH7-B3/GpL16-k0; in assay [3] it was 3 % of GpH7-B3/GpL16-k0; in assay [4], 1 % of GpH7-B3/GpL16-k0; in assay [5], 68 % of GpH7-B3/GpL16-k0.

B13: GpH7-B3 variant V266A/GpL16-k0 (antibody, human IgG1)
heavy: not shown
light: DIVMTQSPLSLPVTPGEPASISCQASESLVHSNRNTYLHWYLQKPGQSPQLLIYKVSNRFSGVPDRFSGSGSGTDFTLKISRVEAEDVGVYYCSQNTHVPPTFGQGTKVEIE
notes: copies: 2 + 2
Take B13: the relative binding activity in assay [1] was 68 % of GpH7-B3/GpL16-k0; in assay [2], 41 % of GpH7-B3/GpL16-k0; in assay [3], 55 % of GpH7-B3/GpL16-k0; in assay [4] it was 26 % of GpH7-B3/GpL16-k0; in assay [5], 95 % of GpH7-B3/GpL16-k0.

B14: GpH7-B3 variant S267P/GpL16-k0 (antibody, human IgG1)
heavy: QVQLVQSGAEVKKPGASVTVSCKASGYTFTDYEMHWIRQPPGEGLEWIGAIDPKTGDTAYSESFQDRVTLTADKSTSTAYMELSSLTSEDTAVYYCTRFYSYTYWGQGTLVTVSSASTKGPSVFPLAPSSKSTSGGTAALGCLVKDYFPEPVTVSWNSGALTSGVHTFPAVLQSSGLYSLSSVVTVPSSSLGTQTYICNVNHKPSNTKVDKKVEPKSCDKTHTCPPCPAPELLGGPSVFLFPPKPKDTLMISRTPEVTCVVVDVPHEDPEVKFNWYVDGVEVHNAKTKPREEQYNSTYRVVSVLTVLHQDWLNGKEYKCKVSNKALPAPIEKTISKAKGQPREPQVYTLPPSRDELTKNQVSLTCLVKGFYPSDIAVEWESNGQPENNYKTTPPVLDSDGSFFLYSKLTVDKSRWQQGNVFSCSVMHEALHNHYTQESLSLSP
light: DIVMTQSPLSLPVTPGEPASISCQASESLVHSNRNTYLHWYLQKPGQSPQLLIYKVSNRFSGVPDRFSGSGSGTDFTLKISRVEAEDVGVYYCSQNTHVPPTFGQGTKVEIE
notes: copies: 2 + 2
With B14, the relative binding activity in assay [1] is 0 % of GpH7-B3/GpL16-k0; in assay [2], 2 % of GpH7-B3/GpL16-k0; in assay [3] it was 5 % of GpH7-B3/GpL16-k0; in assay [4], 0 % of GpH7-B3/GpL16-k0; in assay [5] it was 78 % of GpH7-B3/GpL16-k0.

B15: GpH7-B3 variant S267W/GpL16-k0 (antibody, human IgG1)
heavy: not shown
light: DIVMTQSPLSLPVTPGEPASISCQASESLVHSNRNTYLHWYLQKPGQSPQLLIYKVSNRFSGVPDRFSGSGSGTDFTLKISRVEAEDVGVYYCSQNTHVPPTFGQGTKVEIE
notes: copies: 2 + 2
Turning to B15, the relative binding activity is 26 % of GpH7-B3/GpL16-k0 in assay [1]; 2 % of GpH7-B3/GpL16-k0 in assay [2]; 29 % of GpH7-B3/GpL16-k0 in assay [3]; 2 % of GpH7-B3/GpL16-k0 in assay [4]; 97 % of GpH7-B3/GpL16-k0 in assay [5].

The record behind these values is patent US20200199241A1 (Chugai, published 2020).
